The target of data set [1] is T1, Hfq (Pseudomonas aeruginosa, UniProt Q9HUM0 Q9HUM0:1-82). Nature of the data set: EMSA; apparent Kd, Hill fit; two cooperative binding sites; 50 mM Tris, 250 mM NH4Cl pH 7.5, tRNA, 37 C; exact value in figure only. As to conditions: tags: His tag (pET28a, TALON purified, anti-His6 used), chain copies: 6 inferred, label: 32P-UTP internal. Background: In EMSA bound probe runs differently from free probe, usually more slowly.

The target of data set [2] is T1, Hfq. Nature of the data set: EMSA; apparent Kd, Hill fit; 50 mM Tris, 250 mM NH4Cl pH 7.5, tRNA, 37 C; exact value in figure only. As to conditions: tags: His tag (pET28a, TALON purified, anti-His6 used); chain copies: 6 inferred; label: 32P-UTP internal; I-shaped terminator.

A value given as a limit tells only on which side of the number the result lay.

T1 sequence (Q9HUM0 whole entry, one chain of several): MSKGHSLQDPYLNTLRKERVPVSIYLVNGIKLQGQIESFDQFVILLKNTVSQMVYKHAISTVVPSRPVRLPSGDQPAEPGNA

B1: IGR2780 sRNA (ssRNA)
RNA: GCUGUACAUCCCUGGAUCCUUUCCCGGCCUGCUCCACGCGGCCGGGAUUUUUUUUGCCC
Consider B1, for which the Kd with Hfq [1] (terminator stem-loop with poly(U) stretch) was less than 150 nM.

B2: AS2779 sRNA (ssRNA)
RNA: GCGAACCCCAAGGGUAUUUCCCGACCAGCUCCCCCGCGGUCGGGAUUUUUUUUUGCCUGUCGCUCAGCGCUUCGGGUCGAAGGGCGAAUAGCCCCGCCGGCGCAGGCUCGCCAGGGGCGCGAACAGCGG
As to B2, the Kd with Hfq [1] (I-shaped terminator, canonical terminator in the middle) is less than 150 nM.

B3: AS1974 sRNA (ssRNA)
RNA: GAAUGUUCUUAAAUAUCCUCAAGCGGUUGCGCGGCCAGGCACUGGUCGAGGAGAUGCACCAGGGUGGCCUGUUCCACCGGGGUGAGCGGGGCAAACAACUCGUCAUGCACGCGUGACAUGAUGGCCUC
On to B3, for which the Kd with Hfq [2] is less than 150 nM.

The values above are taken from US20210395731, “METHOD AND COMPOSITION FOR INHIBITING GROWTH OF BACTERIUM” (City University of Hong Kong, published 2021).
